B1: Htatip2.575: shRNA, SEQ ID NO: 133 (nucleic acid)
chain: TGCTGTTGACAGTGAGCGACAGCAGTTTCTTATACCTACATAGTGAAGCCACAGATGTATGTAGGTATAAGAAACTGCTGGTGCCTACTGCCTCGGA
B2: Ctbs.796: shRNA, SEQ ID NO: 110 (nucleic acid)
chain: TGCTGTTGACAGTGAGCGCCCCACAGAGCATCTCACTAAATAGTGAAGCCACAGATGTATTTAGTGAGATGCTCTGTGGGTTGCCTACTGCCTCGGA
B3: Rbks.337: shRNA, SEQ ID NO: 172 (nucleic acid)
chain: TGCTGTTGACAGTGAGCGAAGCCTCCATAATTGTCAATAATAGTGAAGCCACAGATGTATTATTGACAATTATGGAGGCTGTGCCTACTGCCTCGGA
B4: Pde1b.2027: shRNA, SEQ ID NO: 162 (nucleic acid)
chain: TGCTGTTGACAGTGAGCGCTGCCTCCAAGTTTCTAAGCAATAGTGAAGCCACAGATGTATTGCTTAGAAACTTGGAGGCAATGCCTACTGCCTCGGA
B5: Nmur1.7: shRNA, SEQ ID NO: 152 (nucleic acid)
chain: TGCTGTTGACAGTGAGCGCCTGCAATATCAGTGAGTTCAATAGTGAAGCCACAGATGTATTGAACTCACTGATATTGCAGATGCCTACTGCCTCGGA
B6: EG408196.85: shRNA, SEQ ID NO: 116 (nucleic acid)
chain: TGCTGTTGACAGTGAGCGCAGCGAGAACCAGTGAGAAATATAGTGAAGCCACAGATGTATATTTCTCACTGGTTCTCGCTTTGCCTACTGCCTCGGA
B7: Pdgfrb.1028: shRNA, SEQ ID NO: 163 (nucleic acid)
chain: TGCTGTTGACAGTGAGCGAAACGACCATGGCGATGAGAAATAGTGAAGCCACAGATGTATTTCTCATCGCCATGGTCGTTCTGCCTACTGCCTCGGA
B8: Nrp1.2022: shRNA, SEQ ID NO: 154 (nucleic acid)
chain: TGCTGTTGACAGTGAGCGACACAAGGTTCATCAGGATCTATAGTGAAGCCACAGATGTATAGATCCTGATGAACCTTGTGGTGCCTACTGCCTCGGA
B9: Trpm4.2813: shRNA, SEQ ID NO: 188 (nucleic acid)
chain: TGCTGTTGACAGTGAGCGACAAGATTGTCATAGTGAGCAATAGTGAAGCCACAGATGTATTGCTCACTATGACAATCTTGGTGCCTACTGCCTCGGA
B10: Casp1.248: shRNA, SEQ ID NO: 100 (nucleic acid)
chain: TGCTGTTGACAGTGAGCGCCAGTGAGTATAGGGACAATAATAGTGAAGCCACAGATGTATTATTGTCCCTATACTCACTGATGCCTACTGCCTCGGA
B11: Myo7a.618: shRNA, SEQ ID NO: 149 (nucleic acid)
chain: TGCTGTTGACAGTGAGCGCCCGCCAGTACACCAACAAGAATAGTGAAGCCACAGATGTATTCTTGTTGGTGTACTGGCGGATGCCTACTGCCTCGGA
B12: S100a9.148: shRNA, SEQ ID NO: 177 (nucleic acid)
chain: TGCTGTTGACAGTGAGCGCCAGACAAATGGTGGAAGCACATAGTGAAGCCACAGATGTATGTGCTTCCACCATTTGTCTGATGCCTACTGCCTCGGA
B13: Pgam1.1811: shRNA, SEQ ID NO: 164 (nucleic acid)
chain: TGCTGTTGACAGTGAGCGCAAGGAGTGATGTGCAATACTTTAGTGAAGCCACAGATGTAAAGTATTGCACATCACTCCTTTTGCCTACTGCCTCGGA
B14: Rgs6.896: shRNA, SEQ ID NO: 173 (nucleic acid)
chain: TGCTGTTGACAGTGAGCGCCAAGTGAAGATTGACCGGAAATAGTGAAGCCACAGATGTATTTCCGGTCAATCTTCACTTGTTGCCTACTGCCTCGGA
B15: Lima1.3235: shRNA, SEQ ID NO: 138 (nucleic acid)
chain: TGCTGTTGACAGTGAGCGAACGGACATTGTACCCAGATAATAGTGAAGCCACAGATGTATTATCTGGGTACAATGTCCGTCTGCCTACTGCCTCGGA
B16: Aspa.996: shRNA, SEQ ID NO: 92 (nucleic acid)
chain: TGCTGTTGACAGTGAGCGCATGAAGCTGCATATTATGAAATAGTGAAGCCACAGATGTATTTCATAATATGCAGCTTCATTTGCCTACTGCCTCGGA
B17: Cdc42ep1.317: shRNA, SEQ ID NO: 103 (nucleic acid)
chain: TGCTGTTGACAGTGAGCGCCTAGCAGTTGTAAGCAATCAATAGTGAAGCCACAGATGTATTGATTGCTTACAACTGCTAGTTGCCTACTGCCTCGGA
B18: Centd3.3993: shRNA, SEQ ID NO: 107 (nucleic acid)
chain: TGCTGTTGACAGTGAGCGCCTGGACCACAAGCATCCTTAATAGTGAAGCCACAGATGTATTAAGGATGCTTGTGGTCCAGTTGCCTACTGCCTCGGA
B19: Klrb1b.845: shRNA, SEQ ID NO: 136 (nucleic acid)
chain: TGCTGTTGACAGTGAGCGCCAGATTCTTCATTGTATAAATTAGTGAAGCCACAGATGTAATTTATACAATGAAGAATCTGTTGCCTACTGCCTCGGA
B20: Fpr1.375: shRNA, SEQ ID NO: 124 (nucleic acid)
chain: TGCTGTTGACAGTGAGCGATTGGTTCATGTGCAAATTCATTAGTGAAGCCACAGATGTAATGAATTTGCACATGAACCAACTGCCTACTGCCTCGGA
B21: Wnt10b.1717: shRNA, SEQ ID NO: 190 (nucleic acid)
chain: TGCTGTTGACAGTGAGCGCCTCGAATAGACTAAGATGAAATAGTGAAGCCACAGATGTATTTCATCTTAGTCTATTCGAGTTGCCTACTGCCTCGGA
B22: Dio2.2087: shRNA, SEQ ID NO: 112 (nucleic acid)
chain: TGCTGTTGACAGTGAGCGCCAGGAATTTGGTTAAATGGAATAGTGAAGCCACAGATGTATTCCATTTAACCAAATTCCTGTTGCCTACTGCCTCGGA

Columns and labels:
[1] = test system: tet-on competent MLL/AF9+Nras AML; experiment: Pooled negative selection RNAi screening (deep sequencing); format: cell-based, mouse; settings: deep sequencing reads, On Dox compared to T0
Description: (§1) In addition to the analysis of single shRNAs for inhibitory effects in vitro and in vivo, the combination of tet-on competent cancer models and tet-regulatable shRNA expression vectors allowing for monitoring shRNA expression through fluorescent and other reporter genes (e.g. TRMPV and derivates) facilitates pooled shRNA negative selection screening (FIG. 37). In such approaches a pool of over 1,000 shRNAs are retrovirally transduced into tet-on competent cancer models (here MLL/AF9+Nras AML) and selected for shRNA containing cells by either drug selection (e.g. G418) or fluorescence-activated cell sorting (FACS). Selected cell populations harboring a library of shRNAs then can be cultured in the absence or presence of doxycyline (off dox and on dox, respectively) or injected into syngeneic recipient mice that are either treated with doxycyline or left untreated.
(§2) The representation of each shRNA within the pool can be effectively assessed by deep sequencing of shRNA cassettes in a given cell population. For this, genomic DNA is extracted from leukemia cells containing the shRNA pool, and the shRNA guide or passenger strand (21-22 target gene specific nucleotides of the shRNA) by PCR using primers specific for common sequences flanking the gene specific part of the shRNA (e.g. miR30 19 nt loop and miR30 common 3′ sequence). The primers also contain 5′-adapters required for deep sequencing (e.g. for Illumina/Solexa sequencing primers are p5+mir3: 5′-[…]-3′ (SEQ ID NO: 215) and p7+Loop: 5′-[…]-3′ (SEQ ID NO: 216)). Deep sequencing is subsequently performed using a primer binding the flanking nucleotide sequence next to the target gene specific part of the shRNA (for Illumina/Solexa platforms the primer is mir30EcoR1Seq: 5′-TAGCCCCTTGAATTCCGA GGCAGTAGGCA-3′ (SEQ ID NO: 217)).
(§3) The use of shRNA vectors that allow for monitoring of shRNA expression through fluorescent and other reporter genes (e.g. TRMPV) in combination with tet-on competent mouse models facilitates the isolation of pure shRNA expressing cell populations (e.g. by FACS, for TRMPV by sorting of Venus/dsRed double positive cells (FIG. 38). This selection of shRNA expressing cells prior to DNA isolation strongly reduces the background caused by cell populations with insufficient shRNA induction, which are predicted to contain genomic representation of the whole shRNA library without shRNA specific shifts in representation. The final readout is based on the comparison of shRNA representation (i.e. deep sequencing read numbers) before the assay (t0) or from cell populations left without doxycycline treatment (off dox) to those where shRNA were induced and cells subsequently sorted for shRNA expressing cells (on dox). shRNA with inhibitory effects are predicted to loose representation (show less reads) on dox compared to t0 and off dox.
(§4) This pooled is RNAi screening strategy can be applied to rapidly survey inhibitory effects of large pools of shRNAs (˜1000 at a time) in different tet-on competent cancer models and normal control cells (FIG. 39). For example, a pool of 1166 shRNAs targeting 836 predominantly druggable genes associated with MLL fusion proteins in human leukemia and mouse models of MLL/AF9-induced AML (MLL cure library) was analyzed in pooled negative selection screening in tet-on competent MLL/AF9+Nras AML and immortalized murine embryonic fibroblasts (Mef) in parallel. To establish and validate this screening approach, the pool also contained 64 control shRNAs each of which have been previously analyzed for inhibitory effects in both AML cells and Mefs using the same experimental system (FIG. 40).
(§5) After pooling of 1166 experimental and 64 control shRNAs the presence of shRNAs was verified by deep sequencing of shRNAs within the plasmid vector pool (FIG. 41). […]

[2] = test system: immortalized murine embryonic fibroblasts (Mef); experiment: as above; format: cell-based; settings: deep sequencing reads, on dox compared to initial representation
Description: as §1, §2, §3, §4, §5

Molecule	Fold depletion in AML [1] [Fold]	Fold depletion in Mef [2] [Fold]
B1	15.74	1.08
B2	19.44	0.19
B3	17.02	1.07
B4	15.12	1.31
B5	19.45	2.58
B6	20.79	0.25
B7	16.16	2.15
B8	13.60	1.80
B9	20.52	2.33
B10	16.16	3.84
B11	14.79	4.42
B12	13.18	2.68
B13	20.18	0.17
B14	14.33	1.99
B15	16.44	0.56
B16	13.25	0.68
B17	14.91	1.47
B18	13.37	1.77
B19	9.74	0.43
B20	9.66	3.07
B21	15.69	1.35
B22	20.52	2.52

From patent US8895526B2, “Identification of RNAI targets and use of RNAI for rational therapy of chemotherapy-resistant leukemia and other cancers” (Cold Spring Harbor Laboratory, priority 2009, dated 2014)
